Data taken from US20220218785A1 (ALPINE IMMUNE SCIENCES, published 2022).
Blank lines part the entries; values can stand above or below the binder they belong to.

Legend:
[1] = target: CD28 receptor loaded onto anti-human capture sensor (ForteBio Octet AHC) (UniProt P10747 19-152); assay: ForteBio Octet BLI, receptor on AHC sensor
Method: (§1) Each titration was globally fit to calculate the association (kₒₙ) and dissociation (Kdis) of each protein. […] The dissociation constant (KD) was calculated and compared to wildtype to determine a fold improvement value (fold imp.).

[2] = target: T1, ICOS receptor loaded onto anti-human capture sensor (ForteBio Octet AHC) (UniProt Q9Y6W8 21-141, limits assumed); assay: ForteBio Octet BLI, receptor on AHC sensor
T1 sequence (looked up): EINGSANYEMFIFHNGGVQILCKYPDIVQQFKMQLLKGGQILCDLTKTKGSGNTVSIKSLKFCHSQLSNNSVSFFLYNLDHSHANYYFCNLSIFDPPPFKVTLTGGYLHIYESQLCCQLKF
Method: as §1

[3] = target: CTLA-4 receptor loaded onto anti-human capture sensor (ForteBio Octet AHC) (UniProt P16410 37-162, limits assumed); assay: ForteBio Octet BLI, receptor on AHC sensor
Method: as §1

[4] = target: T2, human ICOS, full-length, on transfected cells (human, UniProt Q9Y6W8 21-199); assay: flow cytometry on CHO cells expressing ICOS, anti-human IgG-PE
T2 construct: whole, on cells; also called ICOS tfxn
T2 sequence (looked up): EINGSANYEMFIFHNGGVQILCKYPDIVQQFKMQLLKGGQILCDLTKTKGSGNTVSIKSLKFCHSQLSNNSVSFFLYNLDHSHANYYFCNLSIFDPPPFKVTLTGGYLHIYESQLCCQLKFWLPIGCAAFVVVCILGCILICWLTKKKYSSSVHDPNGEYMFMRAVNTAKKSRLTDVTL

[5] = target: T3, human CD28, full-length, on transfected cells (human, UniProt P10747 19-220); assay: flow cytometry on CHO cells expressing CD28, anti-human IgG-PE
T3 construct: whole, on cells; also called CD28 tfxn

[6] = target: T4, rat CD28, full-length, on transfected HEK293 cells (rat, UniProt P31042 20-218); assay: flow cytometry on transfected HEK293 cells
T4 construct: whole, on cells
Method: (§2) Binding studies were carried out on transfected HEK293 cells generated to express the full-length mammalian (human) surface ligands, CD28, ICOS or CTLA-4, using a transient transfection system (Life Technologies, USA). As a control, binding to mock (non-transfected) cells also was assessed. For staining by flow cytometry, 200,000 cells of appropriate transient transfection or negative control (mock) were plated in 96 well round bottom plates, and, then incubated in staining buffer (PBS, phosphate buffered saline; 1% BSA, bovine serum albumin; and 0.1% sodium azide) for 20 minutes to block non-specific binding. Cells were resuspended in staining buffer containing 100 nM to 1 nM variant immunomodulatory protein in 50 μL. Mean Fluorescence Intensity (MFI) was calculated for each transfectant and negative parental line with Cell Quest Pro software (Becton Dickinson, USA) or a Hypercyt flow cytometer (Intellicyte, USA).
(§3) Binding was assessed substantially as described in Example 1 on transfected HEK293 cells generated to express the full-length surface ligands CD28, ICOS or CTLA-4 from human, cynomolgus monkey, rat or mouse. Transfection was carried out using a transient transfection system (Life Technologies, USA). As a control, binding to mock (non-transfected) cells also was assessed.

[7] = target: T5, mouse ICOS, full-length, on transfected HEK293 cells (mouse, UniProt Q9WVS0 21-200); assay: flow cytometry on transfected HEK293 cells
T5 construct: whole, on cells
T5 sequence (looked up): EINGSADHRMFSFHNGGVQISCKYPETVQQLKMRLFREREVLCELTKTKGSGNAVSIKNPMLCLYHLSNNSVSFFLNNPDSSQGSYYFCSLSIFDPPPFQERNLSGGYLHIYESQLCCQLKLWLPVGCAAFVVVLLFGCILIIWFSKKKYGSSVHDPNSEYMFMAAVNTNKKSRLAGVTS
Method: as §2, §3

[8] = target: T6, rat ICOS, full-length, on transfected HEK293 cells (rat, UniProt Q9R1T7 21-200); assay: flow cytometry on transfected HEK293 cells
T6 construct: whole, on cells
T6 sequence (looked up): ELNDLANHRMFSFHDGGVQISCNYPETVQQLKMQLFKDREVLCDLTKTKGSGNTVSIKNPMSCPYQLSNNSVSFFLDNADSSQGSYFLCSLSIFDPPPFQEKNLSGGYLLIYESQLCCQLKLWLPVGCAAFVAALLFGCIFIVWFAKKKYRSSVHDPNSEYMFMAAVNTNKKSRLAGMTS
Method: as §2, §3

[9] = target: T7, human CTLA-4, full-length, on transfected cells (human, UniProt P16410 36-223); assay: flow cytometry on transfected HEK293 cells
T7 construct: whole, on cells; also called CTLA-4 tfxn
Method: as §2, §3

[10] = target: T8, mouse CTLA-4, full-length, on transfected HEK293 cells (mouse, UniProt P09793 36-223); assay: flow cytometry on transfected HEK293 cells
T8 construct: whole, on cells
Method: as §2, §3

[11] = target: T9, mouse CD28, full-length, on transfected HEK293 cells (mouse, UniProt P31041 20-218); assay: flow cytometry on transfected HEK293 cells
T9 construct: whole, on cells
Method: as §2, §3

[12] = target: T10, ICOS on CHO cells expressing ICOS (UniProt Q9Y6W8 21-199, limits assumed); assay: competition, flow cytometry: competitor labelled ICOSL on CHO cells expressing ICOS
T10 construct: whole, on cells
T10 sequence (looked up): T2 sequence (looked up)

[13] = target: T11, CD28 on CHO cells expressing CD28 (UniProt P10747 19-220, limits assumed); assay: flow cytometry on CHO cells expressing CD28, bound protein detected with anti-human IgG-PE, median fluorescence against [pM]
T11 construct: whole, on cells

[14] = target: T10, ICOS on CHO cells expressing ICOS; assay: flow cytometry on CHO cells expressing ICOS, bound protein detected with anti-human IgG-PE, median fluorescence against [pM]
mouse CD28 = target: T12, mouse CD28 (mouse, UniProt P31041 20-218); assay: flow cytometry, transfected HEK293 cells
T12 construct: whole, on cells
Method: as §3

human ICOS = target: T13, human ICOS (human, UniProt Q9Y6W8 21-199); assay: flow cytometry, transfected HEK293 cells
T13 construct: whole, on cells
T13 sequence (looked up): T2 sequence (looked up)
Method: as §3

human CTLA-4 = target: T14, human CTLA-4 (human, UniProt P16410 36-223); assay: flow cytometry, transfected HEK293 cells
T14 construct: whole, on cells
Method: as §3

rat CD28 = target: T15, rat CD28 (rat, UniProt P31042 20-218); assay: flow cytometry, transfected HEK293 cells
T15 construct: whole, on cells
Method: as §3

rat CTLA-4 = rat CTLA-4 (rat, UniProt Q62859 36-223); assay: flow cytometry, transfected HEK293 cells
Method: as §3

cynomolgus monkey ICOS = target: T16, cynomolgus monkey ICOS (cynomolgus monkey, UniProt A0A2K5TQR6 21-168); assay: flow cytometry, transfected HEK293 cells
T16 sequence: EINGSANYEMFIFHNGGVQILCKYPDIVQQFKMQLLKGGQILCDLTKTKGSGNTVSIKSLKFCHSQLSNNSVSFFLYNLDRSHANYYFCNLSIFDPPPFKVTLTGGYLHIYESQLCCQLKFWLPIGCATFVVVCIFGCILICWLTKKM
Method: as §3

mouse CTLA-4 = target: T17, mouse CTLA-4 (mouse, UniProt P09793 36-223); assay: flow cytometry, transfected HEK293 cells
T17 construct: whole, on cells
Method: as §3

mouse ICOS = target: T18, mouse ICOS (mouse, UniProt Q9WVS0 21-200); assay: flow cytometry, transfected HEK293 cells
T18 construct: whole, on cells
T18 sequence (looked up): T5 sequence (looked up)
Method: as §3

cynomolgus monkey CD28 = target: T19, cynomolgus monkey CD28 (cynomolgus monkey, UniProt Q0PDN3 19-220); assay: flow cytometry, transfected HEK293 cells
T19 construct: whole, on cells
Method: as §3

human CD28 = target: T20, human CD28 (human, UniProt P10747 19-220); assay: flow cytometry, transfected HEK293 cells
T20 construct: whole, on cells
Method: as §3

rat ICOS = target: T21, rat ICOS (rat, UniProt Q9R1T7 21-200); assay: flow cytometry, transfected HEK293 cells
T21 construct: whole, on cells
T21 sequence (looked up): T6 sequence (looked up)
Method: as §3

cynomolgus monkey CTLA-4 = target: T22, cynomolgus monkey CTLA-4 (cynomolgus monkey, UniProt G7PL88 36-223); assay: flow cytometry, transfected HEK293 cells
T22 construct: whole, on cells
Method: as §3

[15] = target: T11, CD28 on CHO cells expressing CD28; assay: competition, flow cytometry: competitor CD80 on CHO cells expressing CD28
[16] = target: T11, CD28 on CHO cells expressing CD28; assay: competition, flow cytometry: competitor labelled CD86 on CHO cells expressing CD28

Response [1]: -0.04 | Response [2]: 0.03 | Response [3]: 0
B1: wildtype PD-L2 ED-Fc fusion molecule (Fc fusion, UniProt Q9BQ51 20-220, looked up)
chain: LFTVTVPKELYIIEHGSNVTLECNFDTGSHVNLGAITASLQKVENDTSPHRERATLLEEQLPLGKASFHIPQVQVRDEGQYQCIIIYGVAWDYKYLTLKVKASYRKINTHILKVPETDEVELTCQATGYPLAEVSWPNVSVPANTSHSRTPEGLYQVTSVLRLKPPPGRNFSCVFWNTHVRELTLASIDLQSQMEPRTHPT
notes: extracellular domain; Control protein in the ForteBio assays; also called PD-L2-Fc; not shown: Fc part and any linker are not described

binding result [4]: binds | binding result [5]: binds | binding result [6]: binds | binding result [7]: binds | binding result [8]: binds | binding result [9]: binds | binding result [10]: binds | binding result [11]: binds
B2: variant ICOSL IgV-Fc (N52H/N57Y/Q100R) (Fc fusion)
chain: DTQEKEVRAMVGSDVELSCACPEGSRFDLNDVYVYWQTSESKTVVTYHIPQHSSLEYVDSRYRNRALMSPAGMLRGDFSLRLFNVTPQDEQKFHCLVLSRSLGFQEVLSVEVTLHVAANFSVGGGGSGGGGSEPKSSDKTHTCPPCPAPEAEGAPSVFLFPPKPKDTLMISRTPEVTCVVVDVSHEDPEVKFNWYVDGVEVHNAKTKPREEQYNSTYRVVSVLTVLHQDWLNGKEYKCKVSNKALPAPIEKTISKAKGQPREPQVYTLPPSRDELTKNQVSLTCLVKGFYPSDIAVEWESNGQPENNYKTTPPVLDSDGSFFLYSKLTVDKSRWQQGNVFSCSVMHEALHNHYTQKSLSLSPG
notes: also called variant ICOSL vIgD-Fc fusion molecule; ICOS-IgV Fc (N52H/N57Y/Q100R)

IC50 [12]: 4.3 nM | EC50 (read off the curve) [13]: ~3 nM | EC50 (read off the curve) [14]: ~3 nM | EC50 (mouse CD28): 1.15 nM | EC50 (human ICOS): 0.633 nM | EC50 (human CTLA-4): 0.68 nM | EC50 (rat CD28): 1.06 nM | EC50 (rat CTLA-4): 0.793 nM | EC50 (cynomolgus monkey ICOS): 0.579 nM | EC50 (mouse CTLA-4): 1.11 nM | EC50 (mouse ICOS): 1.43 nM | EC50 (cynomolgus monkey CD28): 0.44 nM | EC50 (human CD28): 0.648 nM | EC50 (rat ICOS): 1.03 nM | EC50 (cynomolgus monkey CTLA-4): 0.704 nM | IC50 [15]: 1 nM | IC50 [16]: 0.7 nM
B3: variant ICOSL IgV-Fc (variant ICOSL IgV N52H/N57Y/Q100R, SEQ ID NO: 36, fused to an inert human IgG1 Fc, e.g. SEQ ID NO: 42) (Fc fusion)
chain: DTQEKEVRAMVGSDVELSCACPEGSRFDLNDVYVYWQTSESKTVVTYHIPQHSSLEYVDSRYRNRALMSPAGMLRGDFSLRLFNVTPQDEQKFHCLVLSRSLGFQEVLSVEVTLHVAANFSVEPKSSDKTHTCPPCPAPEAEGAPSVFLFPPKPKDTLMISRTPEVTCVVVDVSHEDPEVKFNWYVDGVEVHNAKTKPREEQYNSTYRVVSVLTVLHQDWLNGKEYKCKVSNKALPAPIEKTISKAKGQPREPQVYTLPPSRDELTKNQVSLTCLVKGFYPSDIAVEWESNGQPENNYKTTPPVLDSDGSFFLYSKLTVDKSRWQQGNVFSCSVMHEALHNHYTQKSLSLSPG
notes: also called variant ICOSL vIgD-Fc fusion molecule
